What was measured:
[1] = tested on: CBS-HaloTag (CBS-HT) fusion protein (CBS variant 1A5 cloned into pFN19K HaloTag)
[2] = tested on: HQ:CBS:HT (5xHQ tag:CBS variant 1A5:HaloTag), from pFNA:HQ(5x):CBS:HT(7)

CBS-HaloTag (CBS-HT) fusion protein (CBS variant 1A5 cloned into pFN19K HaloTag), sequence (chain, as listed by the source mutant): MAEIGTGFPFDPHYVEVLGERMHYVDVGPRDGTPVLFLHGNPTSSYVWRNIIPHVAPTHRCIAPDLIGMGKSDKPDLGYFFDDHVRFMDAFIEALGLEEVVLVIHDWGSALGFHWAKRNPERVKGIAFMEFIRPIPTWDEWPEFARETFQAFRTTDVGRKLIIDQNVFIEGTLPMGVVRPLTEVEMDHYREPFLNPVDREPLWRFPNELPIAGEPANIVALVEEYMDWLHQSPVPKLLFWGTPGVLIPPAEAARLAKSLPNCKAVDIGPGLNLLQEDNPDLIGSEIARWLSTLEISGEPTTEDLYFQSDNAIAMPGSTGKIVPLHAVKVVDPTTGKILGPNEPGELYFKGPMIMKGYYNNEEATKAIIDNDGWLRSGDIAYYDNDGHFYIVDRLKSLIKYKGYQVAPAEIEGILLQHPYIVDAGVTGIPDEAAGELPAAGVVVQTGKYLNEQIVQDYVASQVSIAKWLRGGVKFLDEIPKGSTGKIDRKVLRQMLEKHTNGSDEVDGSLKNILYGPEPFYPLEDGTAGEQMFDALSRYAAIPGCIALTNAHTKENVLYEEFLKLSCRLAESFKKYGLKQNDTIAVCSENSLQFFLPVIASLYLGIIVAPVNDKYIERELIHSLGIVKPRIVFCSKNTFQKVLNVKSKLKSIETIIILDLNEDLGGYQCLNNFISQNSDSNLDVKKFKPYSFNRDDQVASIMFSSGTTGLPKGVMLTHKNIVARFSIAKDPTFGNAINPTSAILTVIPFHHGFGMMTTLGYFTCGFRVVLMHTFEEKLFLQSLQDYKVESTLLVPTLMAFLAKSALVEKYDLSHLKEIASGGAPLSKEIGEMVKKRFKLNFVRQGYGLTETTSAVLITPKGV

recombinant caspase-3 (E. coli KRX lysate, pTS1k:caspase-3(T/S))
INDUCED luminescence (5 min; CBS-HT from wheat germ extract + E. coli lysate containing caspase-3) [1]: 4,626,173 | INDUCED luminescence, CBS-HT immobilised on HaloLink RESIN [1]: 1,635,259 | INDUCED luminescence, CBS-HT immobilised on HaloTag-ligand plate, 0 min [1]: 1,226 | INDUCED luminescence, CBS-HT immobilised on HaloTag-ligand plate, 1 min [1]: 1,636 | INDUCED luminescence, CBS-HT immobilised on HaloTag-ligand plate, 2 min [1]: 2,267 | INDUCED luminescence, CBS-HT immobilised on HaloTag-ligand plate, 3 min [1]: 2,147 | INDUCED luminescence, CBS-HT immobilised on HaloTag-ligand plate, 4 min [1]: 2,297 | INDUCED luminescence, CBS-HT immobilised on HaloTag-ligand plate, 5 min [1]: 2,857 | INDUCED luminescence, CBS-HT immobilised on HaloTag-ligand plate, 6 min [1]: 3,107 | INDUCED luminescence, CBS-HT immobilised on HaloTag-ligand plate, 7 min [1]: 3,377 | INDUCED luminescence, CBS-HT immobilised on HaloTag-ligand plate, 8 min [1]: 3,037 | INDUCED luminescence, CBS-HT immobilised on HaloTag-ligand plate, 9 min [1]: 3,667 | INDUCED luminescence, sample AS (HaloLink resin immobilisation experiment) [1]: 5,162,108 | INDUCED luminescence, sample FT (HaloLink resin immobilisation experiment) [1]: 232,117 | RESPONSE (induced/basal luminescence; 5 min; CBS-HT from wheat germ extract) [1]: 441 fold | RESPONSE, CBS-HT immobilised on HaloLink RESIN [1]: 146 fold | RESPONSE, CBS-HT immobilised on HaloTag-ligand plate, 0 min [1]: 19 fold | RESPONSE, CBS-HT immobilised on HaloTag-ligand plate, 1 min [1]: 102 fold | RESPONSE, CBS-HT immobilised on HaloTag-ligand plate, 2 min [1]: 21 fold | RESPONSE, CBS-HT immobilised on HaloTag-ligand plate, 3 min [1]: 33 fold | RESPONSE, CBS-HT immobilised on HaloTag-ligand plate, 4 min [1]: 18 fold | RESPONSE, CBS-HT immobilised on HaloTag-ligand plate, 5 min [1]: 23 fold | RESPONSE, CBS-HT immobilised on HaloTag-ligand plate, 6 min [1]: 41 fold | RESPONSE, CBS-HT immobilised on HaloTag-ligand plate, 7 min [1]: 60 fold | RESPONSE, CBS-HT immobilised on HaloTag-ligand plate, 8 min [1]: 22 fold | RESPONSE, CBS-HT immobilised on HaloTag-ligand plate, 9 min [1]: 32 fold | RESPONSE, sample AS (HaloLink resin immobilisation experiment) [1]: 175 fold | RESPONSE, sample FT (HaloLink resin immobilisation experiment) [1]: 73 fold | INDUCED luminescence, HisLink elution fraction E1 [2]: 2,951,899 | INDUCED luminescence, HisLink elution fraction E2 [2]: 40,913,496 | INDUCED luminescence, HisLink elution fraction E3 [2]: 3,287,059 | INDUCED luminescence, HisLink elution fraction E4 [2]: 215,580 | INDUCED luminescence, HisLink elution fraction E5 [2]: 48,068 | INDUCED luminescence, HisLink purification sample HSS [2]: 12,875,742 | INDUCED luminescence, HisLink purification sample NSM [2]: 5,822,003 | INDUCED luminescence, HisLink purification sample WASH [2]: 3,706,541 | INDUCED luminescence, purified HQ:CBS:HT immobilised on HaloLink plate [2]: 661,597 | RESPONSE, HisLink elution fraction E1 [2]: 699 fold | RESPONSE, HisLink elution fraction E2 [2]: 212 fold | RESPONSE, HisLink elution fraction E3 [2]: 178 fold | RESPONSE, HisLink elution fraction E4 [2]: 191 fold | RESPONSE, HisLink elution fraction E5 [2]: 178 fold | RESPONSE, HisLink purification sample HSS [2]: 43 fold | RESPONSE, HisLink purification sample NSM [2]: 33 fold | RESPONSE, HisLink purification sample WASH [2]: 479 fold | RESPONSE, purified HQ:CBS:HT immobilised on HaloLink plate [2]: 96 fold

— patent US20140030725
